This note sets out measurements from patent US9389219B2, “Methods for screening inhibitors of tumor associated protein aggregation” (Vrije Universiteit Brussel, priority 2011, dated 2016).

The target in this experiment is p53β (p53-aggregating sequence ILTIITL) (Homo sapiens, UniProt P04637). Briefly: In vitro peptide-binding assay (PepSpot membrane, biotinylated p53β peptide, streptavidin-HRP). To be noted: immobilized peptide, p53β self-interaction = 100,00. The source says: In order to identify aggregating peptides that match p53β, the human proteome for peptides that have high homology with the p53β peptide were screened. While p53β is unique to p53, in silico analysis identified 56 additional peptides (Table 2) that have no more than two mismatches with p53β. Subsequently, the ability of the selected peptides to interact with p53β using an in vitro peptide-binding assay was empirically determined. Therefore, the 56 selected peptides were spot-synthesized on a cellulose membrane, which was subsequently incubated with biotinylated p53β peptide (FIG. 17, panel b). After washing, the membrane was treated with streptavidine-HRP to detect p53β binding (FIG. 17, panel c). Consistently, the assay successfully identified control peptides including p53β itself, as well as the equivalent sequences from p63 and p73. […] The sequence identity between p53β and their interacting peptide, however, is 75%. Although the function of the proteins from which these 33 interacting peptides stem is often poorly characterized, some interesting cases can be identified. Along with the previously identified p63 and p73, which are inactivated by mutant p53 in cancer, segments were found belonging to Copine-2 (CPNE2), which is a negative regulator of growth factor signaling,^72 methionine synthase (METH), which has been associated to methionine dependence in tumors,^64 CGRF1, a negative regulator of cell proliferation,^67 and caspase-8 (CASP8), a key element for apoptosis, the inactivation of which is associated to chemoresistance and found in a variety of human cancers.^66
Peptides of selected sequences were spot synthesized on PVDF membrane (PepSpot, JPT). The membranes were blocked by 1% BSA in phosphate-buffered saline for 1 hour at room temperature, and then incubated with biotinylated peptide containing the p53-aggregating sequence for 1 hour. After rinsing with 0.1% TWEEN® 20 in 25 mM MES buffer pH 7.0, membranes were incubated in HRP-labeled Streptavidin (Thermo) and visualized with electrochemical luminescence (ECL) system.

As to ILTDVTL (listed as Homo sapiens), the “Binding intensity (normalized)” value is given as 5,88. With VLTISTL (listed as Homo sapiens) the figure was 6,72; with “ILCDITL (listed as Homo sapiens) [peptide from KLH32_HUMAN]”, 7,89.

With ILTICTK (listed as Homo sapiens), the “Binding intensity (normalized)” value is recorded as 6,48. With “ILIIITL (listed as Homo sapiens) [peptide from P73_HUMAN]” the figure was 98,99; with “FLTIFTL (listed as Homo sapiens) [peptide from PRA10_HUMAN]”, 26,40. Turning to “ILTITTP (listed as Homo sapiens) [peptide from CBPC3_HUMAN]”, the “Binding intensity (normalized)” value is 19,59. The value for LLTIILL (listed as Homo sapiens) was 3,95. On to “ILTKISL (listed as Homo sapiens) [peptide from HEAT1_HUMAN]”, for which the “Binding intensity (normalized)” value is 8,65.

For the substance “ILVIITR (listed as Homo sapiens) [peptide from LONF2_HUMAN]”, the “Binding intensity (normalized)” value was 6,81. LLTIINL (listed as Homo sapiens): the “Binding intensity (normalized)” value was 1,55. The value for “ILKNITL (listed as Homo sapiens) [peptide from BPA1_HUMAN]” was 12,10. Regarding “ILQIITE (listed as Homo sapiens) [peptide from DHX29_HUMAN]”, the “Binding intensity (normalized)” value is 15,64. With GLTIPTL (listed as Homo sapiens) the figure was 10,86.

For “KLTIITS (listed as Homo sapiens) [peptide from CM031_HUMAN]”, the “Binding intensity (normalized)” value was 17,88.

With “ILTFKTL (listed as Homo sapiens) [peptide from DYH3_HUMAN]”, the “Binding intensity (normalized)” value is recorded as 6,20. The value for “ALVIITL (listed as Homo sapiens) [peptide from CCNI2_HUMAN]” was 43,37; that for “ILTKPTL (listed as Homo sapiens) [peptide from MYST3_HUMAN]” was 16,14. With ILTIITL (listed as Homo sapiens) the figure was 100,00.

Take “ILTILTE (listed as Homo sapiens) [peptide from CASP8_HUMAN]”: the “Binding intensity (normalized)” value is listed as 11,43. With ILTILCL (listed as Homo sapiens) the figure was 4,81. The value for “ILTEIHL (listed as Homo sapiens) [peptide from RFC5_HUMAN]” was 12,86.

Take “IHAIITL (listed as Homo sapiens) [peptide from LRC40_HUMAN]”: the “Binding intensity (normalized)” value is recorded as 8,22. With “IKSIITL (listed as Homo sapiens) [peptide from CT132_HUMAN]” the figure was 4,39; with “ITTGITL (listed as Homo sapiens) [peptide from CGRF1_HUMAN]”, 36,69; with “ILTLIEL (listed as Homo sapiens) [peptide from SMG1_HUMAN]”, 9,77. With “ILTIVSL (listed as Homo sapiens) [peptide from DHX33_HUMAN]” the figure was 10,20; with MLTEITL (listed as Homo sapiens), 3,03.

In the case of “CLTIITG (listed as Homo sapiens) [peptide from TRI18_HUMAN]”, the “Binding intensity (normalized)” value is given as 3,67. With ILTIGTG (listed as Homo sapiens), the “Binding intensity (normalized)” value was 49,22. The value for ILTSQTL (listed as Homo sapiens) was 2,39; that for “IKTIINL (listed as Homo sapiens) [peptide from PTPC1_HUMAN]” was 9,72.
